Measurements from US20180244796A1 (CARSGEN THERAPEUTICS, published 2018).

B5: purified human mesothelin protein (recombinant, 6xHis tag) (other)
chain: EVEKTACPSGKKAREIDESLIFYKKWELEACVDAALLATQMDRVNAIPFTYEQLDVLKHKLDELYPQGYPESVIQHLGYLFLKMSPEDIRKWNVTSLETLKALLEVNKGHEMSPQVATLIDRFVKGRGQLDKDTLDTLTAFYPGYLCSLSPEELSSVPPSSIWAVRPQDLDTCDPRQLDVLYPKARLAFQNMNGSEYFVKIQSFLGGAPTEDLKALSQQNVSMDLATFMKLRTDAVLPLTVAEVQKLLGPHVEGLKAEERHRPVRDWILRQRQDDLDTLGLGLQGHHHHHH
notes: also called hu-mesothelin; human mesothelin recombinant protein

Key:
[1] = target: T1, BSA (bovine serum albumin) (bovine, UniProt P02769 25-607); assay: single phage ELISA, 100 ng/well coated BSA, anti-M13 detection
T1 construct: also called negative control protein BSA
T1 sequence (P02769 25-607 limits assumed): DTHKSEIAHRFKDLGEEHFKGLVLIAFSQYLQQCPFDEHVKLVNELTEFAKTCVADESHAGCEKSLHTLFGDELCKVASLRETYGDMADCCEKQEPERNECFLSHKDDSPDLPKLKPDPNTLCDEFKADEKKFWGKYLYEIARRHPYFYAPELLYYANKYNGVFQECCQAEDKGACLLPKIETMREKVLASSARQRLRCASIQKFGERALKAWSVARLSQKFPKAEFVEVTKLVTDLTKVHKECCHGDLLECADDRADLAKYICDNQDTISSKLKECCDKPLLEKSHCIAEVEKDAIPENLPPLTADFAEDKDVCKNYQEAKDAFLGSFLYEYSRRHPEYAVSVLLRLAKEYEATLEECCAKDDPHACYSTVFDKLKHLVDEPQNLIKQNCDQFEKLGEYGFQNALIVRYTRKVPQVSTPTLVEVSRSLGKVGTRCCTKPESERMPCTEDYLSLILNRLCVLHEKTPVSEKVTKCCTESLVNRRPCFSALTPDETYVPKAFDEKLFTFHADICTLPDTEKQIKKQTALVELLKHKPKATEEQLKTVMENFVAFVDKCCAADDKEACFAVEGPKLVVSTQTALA
Protocol: 96 clones were randomly selected in the clones obtained from the fourth round of screening and their binding capability to human mesothelin was analyzed by single phage ELISA (enzyme-linked immunosorbent assay). For this purpose, each single colony was inoculated in 300 μl of 2×YT/ampicillin medium (containing 2% glucose) in a 96-well deep-well plate and cultured with shaking at 37° C. and 250 rpm for 16 hours. 20 μl of culture was inoculated into 500 μl of 2×YT/ampicillin medium (containing 0.1% glucose) and shaken at 37° C. and 250 rpm for 1.5 hours. To prepare the helper phage solution, 75 μl of M13KO7 (titer of 3×10¹² pfu/ml) was taken and mixed into 15 ml of 2×YT medium and added into a culture plate at 50 μl/well, and incubated at 37° C. and 150 rpm for 30 minutes. And then prepared kanamycin solution (180 μl of 50 mg/ml kanamycin was taken and added into 15 ml of 2×YT medium) was added at 50 μl/well and incubated with shaking for 16 hours at 37° C. and 250 rpm. […]
For single phage ELISA, 100 ng/well of antigen human mesothelin and negative control protein BSA (100 μl/well) were used in a 96-well MediSorp ELISA plate (purchased from Nunc) and coated overnight at 4° C. […] Extinction values were measured at 450 nm with an enzyme-linked immunosorbent (Bio-Rad).

[2] = target: B5; assay: SPR Biacore T200, antibody captured by anti-human IgG (Fc), human mesothelin as analyte, 25 C
Protocol: (§1) To quantitatively analyze the binding of an antibody to human mesothelin, the affinity and kinetic parameters of single-chain antibody and monoclonal antibody of P1A6E and P3F2 were measured by capture method using Biacore T200 system (from GE). An anti-human IgG (Fc) antibody (purchased from GE) was coupled to carboxymethyl dextran surface of sensor chip […] through primary amino with NHS/EDC coupling according to the manufacturer's instructions. Measurements were performed in 1×HBS-EP+working buffer at 25° C., 30 μl/min, and regeneration condition was 3 M MgCl2, 10 μl/min for 30 seconds. In each round of the testing cycle, the antibody to be tested is firstly captured onto the chip. Analyte (human mesothelin) of a certain concentration flowed over the chip surface. Due to the produced SPR signal, the interaction between human mesothelin and the captured antibody can be detected. The detected signal is defined as resonance unit (RU), which was plotted vs time (second) to obtain the corresponding binding curve and dissociation curve. In different test cycles, concentrations of human mesothelin were 10 nM, 20 nM, 40 nM, 80 nM and 160 nM, respectively. The resulting curves were evaluated using Biacore T200 evaluation software and the affinity KD values were calculated. FIG. 5 and FIG. 6 show kinetic curves of the monoclonal antibodies P1A6E and P3F2, in a Biacore Affinity Assay, respectively.

[3] = target: B5; assay: flow cytometry; CAR T cells stained with biotinylated human mesothelin recombinant protein and PE-labeled streptavidin
Protocol: Infected CTL cells were detected by flow cytometry on day 8 of culture for the expression of different chimeric antigen receptors. Firstly, the infected CAR T cells were incubated with biotinylated human mesothelin recombinant protein for 1 h at 37° C., washed in D-PBS twice and then incubated with PE-labeled streptavidin for 40 min at 37° C. After washed with D-PBS for 3 times, the ratio of positive cells was determined by flow cytometry. Uninfected T lymphocytes was used as a negative control, the positive rates of virus-infected T cells expressing different chimeric antigen receptors are shown in Table 3.

[4] = target: human mesothelin on PANC-1-MSLN cells (human, UniProt Q13421 296-598); assay: cell-based or functional assay
human mesothelin on PANC-1-MSLN cells, sequence (Q13421 other isoform, or with tags, fused parts or gaps limits assumed): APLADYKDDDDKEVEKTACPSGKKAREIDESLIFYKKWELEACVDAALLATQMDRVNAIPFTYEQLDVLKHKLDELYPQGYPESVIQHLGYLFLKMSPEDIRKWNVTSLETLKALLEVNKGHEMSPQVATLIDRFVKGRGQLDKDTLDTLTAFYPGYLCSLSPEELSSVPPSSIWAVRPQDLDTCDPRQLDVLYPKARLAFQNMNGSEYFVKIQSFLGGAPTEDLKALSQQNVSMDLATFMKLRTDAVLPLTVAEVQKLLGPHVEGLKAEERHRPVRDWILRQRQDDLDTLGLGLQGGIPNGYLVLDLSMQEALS

[5] = target: T2, scFv-P3F2-Fc (human, UniProt P01857-1 99-330 = IgG part, limits assumed); assay: SPR Biacore T200, antibody captured by anti-human IgG (Fc), human mesothelin as analyte, 25 C
T2 construct: domain: Fc fragment; scFv cloned NheI/BamHI into pCMV-V5-Fc, expressed in HEK-293F, protein A purified; also called P3F2 single chain antibody; P3F2 single chain antibod
Protocol: as §1

[6] = target: T3, scFv-P1A6E-Fc (human, UniProt P01857-1 99-330 = IgG part, limits assumed); assay: as above
T3 construct: domain: Fc fragment; scFv cloned NheI/BamHI into pCMV-V5-Fc, expressed in HEK-293F, protein A purified; also called P1A6E single chain antibody; antibody-Fc fusion protein scFv-P1A6E-Fc
Protocol: as §1

B1: single chain antibody P1A6E (phage-displayed, single phage ELISA) (scFv)
scFv: QVQLEQSGLGLVKPSQTLSLTCAISGDTVSSDSAAWNWIRQSPSRGLEWLGRTYYRSKWFNDYAVSVKGRITINSDTSKNQFSLQLNSVTPEDTAVYYCARSNSYYYYAMDVWGQGTLVTVSSGGGGSGGGGSGGGGSQAVLTQPSSLSASPGASASLTCTLRSGINVGIYRIYWYQQRPGSPPQILLTYKSDSDKYQGSGVPSRFSGSKDASANAGILLISGLQSEDEADYYCMIWHSGGWVFGGGTKVTVLG
notes: the fusion to the phage coat protein is not described
binding result [1]: no binding

B2: P3F2 monoclonal antibody (antibody, V domains shown)
VH: QMQLVQSGAEVKKPGASVKVSCKASGYTFTSYYMHWVRQAPGQGLEWMGIINPSGGSTSYAQKFQGRVTMTRDTSTSTVYMELSSLRSEDTAVYYCASSRSGTTVVNHDAFDIWGKGTTVTVSS
VL: DIQLTQSPSSLSASVGDRVTITCRASQVISRALAWYQQTPGKPPKLLIYDASNLQSGVPSRFSGSGSGTDFTLTISRLQPEDFATYYCQQFNSYPLTFGGGTKLEIKR
notes: Full antibody: VH in plasmid pIH with human IgG1 CH gene, VL in plasmid pIK with human IgG CL gene; also called monoclonal antibody P3F2
Kd [2]: 7.17 nM | koff [2]: 0.000789 s⁻¹ | kon [2]: 110000 M⁻¹ s⁻¹

B3: chimeric antigen receptor P1A6E-BBZ on CTL cells (receptor)
chain: QVQLEQSGLGLVKPSQTLSLTCAISGDTVSSDSAAWNWIRQSPSRGLEWLGRTYYRSKWFNDYAVSVKGRITINSDTSKNQFSLQLNSVTPEDTAVYYCARSNSYYYYAMDVWGQGTLVTVSSGGGGSGGGGSGGGGSQAVLTQPSSLSASPGASASLTCTLRSGINVGIYRIYWYQQRPGSPPQILLTYKSDSDKYQGSGVPSRFSGSKDASANAGILLISGLQSEDEADYYCMIWHSGGWVFGGGTKVTVLGTTTPAPRPPTPAPTIASQPLSLRPEACRPAAGGAVHTRGLDFACDIYIWAPLAGTCGVLLLSLVITLYCKRGRKKLLYIFKQPFMRPVQTTQEEDGCSCRFPEEEEGGCELRVKFSRSADAPAYKQGQNQLYNELNLGRREEYDVLDKRRGRDPEMGGKPRRKNPQEGLYNELQKDKMAEAYSEIGMKGERRRGKGHDGLYQGLSTATKDTYDALHMQALPPR
notes: Expressed on human CTL cells by lentivirus; also called scFv(MSLN)-CD8-CD137-CD3 zeta
Positive rate of CTL cells transfection [3]: 85% | CYTOTOXICITY (%), effector target ratio 1:1, LDH release, 18 h [4]: 56.7% | CYTOTOXICITY (%), effector target ratio 1:3, LDH release, 18 h [4]: 25.3% | CYTOTOXICITY (%), effector target ratio 3:1, LDH release, 18 h [4]: 86.5%

B4: chimeric antigen receptor P3F2-δZ on CTL cells (receptor)
chain: QMQLVQSGAEVKKPGASVKVSCKASGYTFTSYYMHWVRQAPGQGLEWMGIINPSGGSTSYAQKFQGRVTMTRDTSTSTVYMELSSLRSEDTAVYYCASSRSGTTVVNHDAFDIWGKGTTVTVSSGGGGSGGGGSGGGGSDIQLTQSPSSLSASVGDRVTITCRASQVISRALAWYQQTPGKPPKLLIYDASNLQSGVPSRFSGSGSGTDFTLTISRLQPEDFATYYCQQFNSYPLTFGGGTKLEIKRTTTPAPRPPTPAPTIASQPLSLRPEACRPAAGGAVHTRGLDFACDIYIWAPLAGTCGVLLLSLVITRVKFSRSADAPA
notes: Expressed on human CTL cells by lentivirus; also called P3F2-δZ (negative control); P3F2-δZ (mock)
Positive rate of CTL cells transfection [3]: 71%

B5
Kd [5]: 16.2 nM | koff [5]: 0.000935 s⁻¹ | kon [5]: 57700 M⁻¹ s⁻¹ | Kd [6]: 18.9 nM | koff [6]: 0.00156 s⁻¹ | kon [6]: 82500 M⁻¹ s⁻¹

B6: chimeric antigen receptor P3F2-BBZ on CTL cells (receptor)
chain: QMQLVQSGAEVKKPGASVKVSCKASGYTFTSYYMHWVRQAPGQGLEWMGIINPSGGSTSYAQKFQGRVTMTRDTSTSTVYMELSSLRSEDTAVYYCASSRSGTTVVNHDAFDIWGKGTTVTVSSGGGGSGGGGSGGGGSDIQLTQSPSSLSASVGDRVTITCRASQVISRALAWYQQTPGKPPKLLIYDASNLQSGVPSRFSGSGSGTDFTLTISRLQPEDFATYYCQQFNSYPLTFGGGTKLEIKRTTTPAPRPPTPAPTIASQPLSLRPEACRPAAGGAVHTRGLDFACDIYIWAPLAGTCGVLLLSLVITLYCKRGRKKLLYIFKQPFMRPVQTTQEEDGCSCRFPEEEEGGCELRVKFSRSADAPAYKQGQNQLYNELNLGRREEYDVLDKRRGRDPEMGGKPRRKNPQEGLYNELQKDKMAEAYSEIGMKGERRRGKGHDGLYQGLSTATKDTYDALHMQALPPR
notes: as for B3
Positive rate of CTL cells transfection [3]: 83% | CYTOTOXICITY (%), effector target ratio 1:1, LDH release, 18 h [4]: 60.2% | CYTOTOXICITY (%), effector target ratio 1:3, LDH release, 18 h [4]: 31.9% | CYTOTOXICITY (%), effector target ratio 3:1, LDH release, 18 h [4]: 89.3%

B7: chimeric antigen receptor P1A6E-δZ on CTL cells (receptor)
chain: QVQLEQSGLGLVKPSQTLSLTCAISGDTVSSDSAAWNWIRQSPSRGLEWLGRTYYRSKWFNDYAVSVKGRITINSDTSKNQFSLQLNSVTPEDTAVYYCARSNSYYYYAMDVWGQGTLVTVSSGGGGSGGGGSGGGGSQAVLTQPSSLSASPGASASLTCTLRSGINVGIYRIYWYQQRPGSPPQILLTYKSDSDKYQGSGVPSRFSGSKDASANAGILLISGLQSEDEADYYCMIWHSGGWVFGGGTKVTVLGTTTPAPRPPTPAPTIASQPLSLRPEACRPAAGGAVHTRGLDFACDIYIWAPLAGTCGVLLLSLVITRVKFSRSADAPA
notes: Expressed on human CTL cells by lentivirus; also called P1A6E-δZ (negative control); P1A6E-δZ (mock)
Positive rate of CTL cells transfection [3]: 75%

B8: P1A6E monoclonal antibody (antibody, V domains shown)
VH: QVQLEQSGLGLVKPSQTLSLTCAISGDTVSSDSAAWNWIRQSPSRGLEWLGRTYYRSKWFNDYAVSVKGRITINSDTSKNQFSLQLNSVTPEDTAVYYCARSNSYYYYAMDVWGQGTLVTVSS
VL: QAVLTQPSSLSASPGASASLTCTLRSGINVGIYRIYWYQQRPGSPPQILLTYKSDSDKYQGSGVPSRFSGSKDASANAGILLISGLQSEDEADYYCMIWHSGGWVFGGGTKVTVLG
notes: Full antibody: VH in plasmid pIH with human IgG1 CH gene, VL in plasmid pIK with human IgG CL gene; also called monoclonal antibody P1A6E
Kd [2]: 4.04 nM | koff [2]: 0.00116 s⁻¹ | kon [2]: 288000 M⁻¹ s⁻¹

B9: single chain antibody P3F2 (phage-displayed, single phage ELISA) (scFv)
scFv: QMQLVQSGAEVKKPGASVKVSCKASGYTFTSYYMHWVRQAPGQGLEWMGIINPSGGSTSYAQKFQGRVTMTRDTSTSTVYMELSSLRSEDTAVYYCASSRSGTTVVNHDAFDIWGKGTTVTVSSGGGGSGGGGSGGGGSDIQLTQSPSSLSASVGDRVTITCRASQVISRALAWYQQTPGKPPKLLIYDASNLQSGVPSRFSGSGSGTDFTLTISRLQPEDFATYYCQQFNSYPLTFGGGTKLEIKR
notes: as for B1
binding result [1]: no binding
